Data set [1] concerns HCMV protease. Nature of the data set: Dependence of protease specific activity on temperature, enzyme and glycerol concentrations (dilution). The data set is classed as biochemical, human cytomegalovirus. The protocol:
Dependence of Protease Specific Activity on Enzyme and Glycerol Concentrations
Dilution of a concentrated solution of HCMV protease produces a time-dependent change in activity to a new, lower level. The rate and extent of the change in protease activity is a function of temperature. […] At temperatures above 20° C., the change in activity (t1/2 ≤30 min) upon enzyme dilution is such that an accurate assessment of activity requires a rapid assay (ca. 1 min).
The specific activity of the HCMV protease increases at higher enzyme and glycerol concentrations. […] It can be shifted back to the higher activity seen for 20% glycerol by addition of an equal volume of buffer containing 30% glycerol to produce a solution containing 20% glycerol, followed by further incubation. Thus, the dependence of HCMV protease activity on enzyme and glycerol concentrations is reversible.
The dependence of HCMV protease activity on enzyme concentration can be interpreted in terms of a monomer-dimer equilibrium wherein only the dimeric form of the enzyme is active.

Data set [2] has as its system HCMV protease. Put plainly: Analytical centrifugation, velocity sedimentation of HCMV protease. Type of data set: physicochemical, human cytomegalovirus. As to conditions: 20 mM (monomer equivalents), 20° C. The source says:
Analytical Centrifugation
The quaternary state of the HCMV protease was characterized by sedimentation velocity measurements. […] An approximate solution of the Lamm equation fits directly to the data to obtain the sedimentation coefficient, S20,w, the diffusion coefficient, D20,w, and by use of the Svedberg relation, the molecular weight. For both samples good fits are found for a single sedimenting species. In the absence of glycerol the molecular weight obtained is 29.7 kDa which is close to the molecular weight of a monomeric HCMV protease. […] The increase in S20,w and the decrease D20,w shown in Table 1 are both consistent with the existence of a stable dimeric protease in 20% glycerol.
^α Samples were loaded at 20 mM (monomer equivalents) and
sedimentation was conducted at 20° C. Data shown in brackets are
the 95% confidence limits.

For data set [3], the system named is HCMV protease. Put plainly: Activity assay of eluted size exclusion peaks at 0° C. The data set is classed as biochemical, human cytomegalovirus. The protocol:
Assignment of the early (55 kDa) and late (33 kDa) elution peaks in FIG. 1 as dimer and monomer, respectively, allows the estimation of a Kd for dimerization. […] The maximum fraction of dimeric protease extrapolated from FIG. 2 is 0.92. In separate experiments using protease at a loading concentration of 100 mM, the maximum fraction of dimeric protease is more than or equal to 0.95. […] The same analysis applied to enzyme pre-equilibrated in 10% glycerol produces a […]
For orientation: Size exclusion chromatography separates by hydrodynamic size, large species first.

The subject of data set [4] is HCMV protease. Nature of the data set: Kinetic assays of monomeric form. The data set is classed as biochemical, human cytomegalovirus. As to conditions: ambient or higher temperatures. As to the method:
For this reason, the activity of this protease has been erroneously believed to be very low. […] This physiochemical phenomenon is governed by thermodynamic principles. Due to the high activation energy required for dissociation, the HCMV protease can be "frozen" in its active, dimeric form at about 0° C., thus enabling sensitive detection of inhibitors of this enzyme. […] The existence of the HCMV protease has been reported, e.g., see Pinko, et al., J. Biol. Chem. 270, 23634 (1995). Assays for the catalytic activity of this enzyme have been described, albeit the reported kinetic parameters were substantially lower than those measured by applicants. […] This approach affords an assay for the activity of the protease at low concentration (≤20 nM), thus permitting detection of weak inhibitors or strong inhibitors at low concentration.

The test system of another data set is wild-type HCMV protease. Put plainly: Stability of purified wild-type enzyme at pH 5.5 and return of activity at pH 7.5. Type of data set: physicochemical, human cytomegalovirus. As to the method:
The wild-type HCMV protease was purified similarly. To avoid self-proteolysis, the protein obtained from the first anion exchange step was folded and dialyzed as above, but in the absence of glycerol. The sample was then acidified to pH 5.5 with MES, applied to a cation exchange column in 50 mM MES, 1 mM EDTA, 1 mM DTT, pH 5.5, and eluted with a sodium chloride gradient. […] Enzyme preparations were greater than 95% pure by SDS PAGE and gave the expected amino acid analysis. The N-terminal 5 residues of both enzymes were MTMDE, showing retention but defonnylation of the initial N-formyl methionine. Electrospray mass spectrometry indicated a single species within 10 a.m.u. of the expected mass. The concentrations of stock enzyme solutions were determined by quantitative amino acid analysis.

As for “HCMV protease: N-terminal 256 amino acid protease domain of HCMV strain AD169, recombinantly expressed in E. coli”, the “change in protease activity upon dilution” value in the data set with HCMV protease [1] (0° C.) is listed as “no significant change is observable for a period of hours”. In the data set on HCMV protease [1] (10% and 20% glycerol samples), the “time for active form of the enzyme to reach equilibrium after dilution” value was ≤ 1.5 h. For the same substance, the “activity in 10% glycerol compared with 20% glycerol” value in the data set with HCMV protease [1] (10% vs 20% glycerol (v/v)) is on record as “lower than that incubated in 20% glycerol”. For the same substance, in the data set with HCMV protease [1] (37° C.), the “decrease in protease activity upon dilution” value is “occurs within minutes”. In the data set on HCMV protease [1] (after dilution, incubations of 1.5 hr and 3.5 hr), the “specific activity as enzyme concentration is lowered” value is “tends toward zero as its concentration is lowered”. The “t1/2 of change in activity upon enzyme dilution” value in the data set with HCMV protease [1] (temperatures above 20° C.) is listed as ≤ 30 min. Moreover, in the data set with HCMV protease [2] (0% glycerol), the “diffusion coefficient D20,w” value is listed as 8.34 cm^2 10^7 and the “sedimentation coefficient S20,w” value was 2.78 S. In addition, in the data set with HCMV protease [2] (20% glycerol (v/v)), the “diffusion coefficient D20,w” value stood at 6.57 cm^2 10^7 and the “sedimentation coefficient S20,w” value amounted to 3.59 S.
Take “dimer: early (55 kDa) elution peak of HCMV protease, dimeric form”: the “hydrolytic activity in eluted dimer peak” value with HCMV protease [3] is “more than 50 -fold of detectable levels”.
Turning to “monomer: late (33 kDa) elution peak of HCMV protease, monomeric form”, the “activity in eluted monomer peak” value with HCMV protease [3] is listed as “no detectable activity”. Also, the “activity of monomeric form as gauged by kinetic assays” value in the data set with HCMV protease [4] is “inactive”.
As to “wild-type HCMV protease: recombinant wild-type HCMV protease”, the “return of activity following dilution” value in the data set on wild-type HCMV protease (dilution from pH 5.5 to pH 7.5) is given as “returned to full activity”. In addition, the “stability of wild-type enzyme” value in the data set on wild-type HCMV protease (pH 5.5) was “stable at pH 5.5”.

The values are drawn from patent US5891661A, “Low temperature assay for active HCMV protease in dimeric form” (Merck & Co., Inc., priority 1997, dated 1999).
